± gives the uncertainty stated by the source.
Test: self-splicing fitness, log relative to wild type (ln ratio); higher = more splicing; Tetrahymena group I intron in knt gene, E. coli kanamycin selection, DiMSum; sequences stand for … in CUCUCU…GGAGGGAAAAGUUAUCAGGCAUGCACCUGGUAGCUAGUCUUUAAACCAAUAGAUUGCAUCGGUUUAAAAGGCAAGACCGUCAAAUUGCGGGAAAGGGGUCAACAGCCGUUCAGUACCAAGUCUCAGGGGAAACUUUGAGAUGGCCUUGCAAAGGGUAUGGUAAUAAGCUGACGGACAUGGUCCUAACCACGCAGCCAAGUCCUAAGUCAACAGAUCUUCUGUUGAUAUGGAUGCAGUUCACAGACUAAAUGUCGGUCGGGGAAGAUGUAUUCUUCUCAUAAGAUAUAGUCGGACCUCUCCUUAAUGGGAGCUAGCGGAUGAAGUGAUGCAACACUGGAGCCGCUGGGAACUAAUUUGUAUGCGAAAGUAUAUUGAUUAGUUUUGGAGUACUCGUGGUCG
Summary of the method: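 Six replicate transformations of E. coli BL21(DE3) with a pET-22b(+) library were grown overnight at 37°C or 30°C. The library randomised all eight P1ex-region intron nucleotides, the intron lying in the knt kanamycin-resistance gene, and plates were LB agar with or without 25 μg/mL kanamycin plus 100 μg/mL carbenicillin, 50 μM IPTG and 0.2% rhamnose. Pooled colonies were amplicon-sequenced on an Illumina HiSeq 2500, and fitness is the DiMSum error-weighted combination of wild-type-normalised replicate fold changes, kanamycin versus none.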

| Sequence | self-splicing fitness (ln) (30 °C) | self-splicing fitness (ln) (37 °C) |
| --- | --- | --- |
| AUACAGCAAUAUUACGAUGA | -1.42 ± 0.11 | -0.0115 ± 0.1 |
| ACCCAGCAAUAUUACGCAAU | -0.941 ± 0.053 | 0.344 ± 0.064 |
| UUGGAGCAAUAUUACGUUAU | -2.79 ± 0.28 | -0.885 ± 0.26 |
| GAGGAGCAAUAUUACGCUUC | – | -3.68 ± 0.46 |
| GGGGAGCAAUAUUACGGUUA | -1.34 ± 0.26 | -2.75 ± 0.31 |
| GCCAAGCAAUAUUACGUUCG | -3.08 ± 0.17 | -1.22 ± 0.13 |
| UCGAAGCAAUAUUACGAUGU | -1.82 ± 0.067 | -0.546 ± 0.085 |
| AGGAAGCAAUAUUACGACGA | -0.678 ± 0.092 | -0.0243 ± 0.13 |
| CCAAAGCAAUAUUACGAGUU | -4.72 ± 0.34 | -2.31 ± 0.16 |
| GGGCAGCAAUAUUACGGGAA | -2.67 ± 0.31 | -2.7 ± 0.32 |
| CGAGAGCAAUAUUACGCAUC | -3.04 ± 0.35 | -2.33 ± 0.35 |
| UGAAAGCAAUAUUACGGCGU | -1.12 ± 0.095 | 0.0159 ± 0.11 |
| UCCAAGCAAUAUUACGGAAA | -2.19 ± 0.2 | -1.51 ± 0.23 |
| CCAUAGCAAUAUUACGCGCG | -0.974 ± 0.091 | -0.0324 ± 0.1 |
| UCCCAGCAAUAUUACGACGA | -0.00629 ± 0.056 | 0.0828 ± 0.065 |
| UCCUAGCAAUAUUACGUCAG | -3.38 ± 0.29 | -2.41 ± 0.37 |
| GUAGAGCAAUAUUACGAUCA | -1.28 ± 0.23 | -0.907 ± 0.24 |
| UUAGAGCAAUAUUACGUACC | – | -0.711 ± 0.48 |
| UUCCAGCAAUAUUACGCACA | -0.0937 ± 0.12 | -0.0969 ± 0.13 |
| AAAUAGCAAUAUUACGCCUU | -0.206 ± 0.073 | 0.557 ± 0.1 |

| Sequence | self-splicing fitness (ln) (30 °C) | self-splicing fitness (ln) (37 °C) |
| --- | --- | --- |
| AUCCAGCAAUAUUACGGAUA | -3.19 ± 0.18 | -0.948 ± 0.12 |
| AAGGAGCAAUAUUACGGAAC | – | -2.52 ± 0.36 |
| CUUUAGCAAUAUUACGUACU | -2.22 ± 0.23 | -2.82 ± 0.34 |
| GGUGAGCAAUAUUACGCUUC | – | -2.51 ± 0.39 |
| UGCGAGCAAUAUUACGUGAC | -3.73 ± 0.36 | -2.31 ± 0.26 |
| UGGCAGCAAUAUUACGGGAU | -2.84 ± 0.23 | -2.48 ± 0.23 |
| CAGGAGCAAUAUUACGGUUA | -3.1 ± 0.37 | -3.41 ± 0.4 |
| CCUAAGCAAUAUUACGCUAA | – | -2.31 ± 0.27 |
| UUCGAGCAAUAUUACGCAAG | -1.98 ± 0.4 | -1.66 ± 0.48 |
| UGUUAGCAAUAUUACGGCCG | 0.71 ± 0.11 | 0.567 ± 0.17 |
| GUGGAGCAAUAUUACGCUCC | -1.83 ± 0.35 | – |
| CAGUAGCAAUAUUACGAGCC | -3.88 ± 0.37 | -3.14 ± 0.47 |
| AUUGAGCAAUAUUACGCGAC | -3.45 ± 0.3 | -1.2 ± 0.24 |
| GCGGAGCAAUAUUACGAUGC | -1.81 ± 0.37 | – |
| ACCUAGCAAUAUUACGUUUU | -2.61 ± 0.091 | -1.44 ± 0.1 |
| AGUCAGCAAUAUUACGCGCG | 0.157 ± 0.12 | -0.374 ± 0.13 |
| AUAAAGCAAUAUUACGGCAC | -0.531 ± 0.073 | -0.1 ± 0.11 |
| AAUAAGCAAUAUUACGGUUU | -0.628 ± 0.064 | -0.165 ± 0.092 |
| CGUAAGCAAUAUUACGCGAC | -3.62 ± 0.37 | -2.63 ± 0.42 |

— the supplement of paper PMC7877785
